The target of data set [1] is T1, Z-Arg-Leu-Arg-Gly-Gly (SEQ ID NO: 1)-amino-luciferin.
T1 chain: RLRGG

Data set [2] addresses ubiquitin-rhodamine110, P0CG47.
Data set [3] has as its target ubiquitin-7-amino-4-methylcoumarin, P0CG47.
Data set [4] addresses hSUMO2-amino-luciferin, P61956.

hSUMO2-amino-luciferin, P61956, sequence (P61956 1-93): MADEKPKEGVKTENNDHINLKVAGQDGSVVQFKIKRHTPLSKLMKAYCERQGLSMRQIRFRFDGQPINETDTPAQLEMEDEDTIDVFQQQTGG
ubiquitin-rhodamine110, P0CG47, sequence (P0CG47 whole entry, looked up): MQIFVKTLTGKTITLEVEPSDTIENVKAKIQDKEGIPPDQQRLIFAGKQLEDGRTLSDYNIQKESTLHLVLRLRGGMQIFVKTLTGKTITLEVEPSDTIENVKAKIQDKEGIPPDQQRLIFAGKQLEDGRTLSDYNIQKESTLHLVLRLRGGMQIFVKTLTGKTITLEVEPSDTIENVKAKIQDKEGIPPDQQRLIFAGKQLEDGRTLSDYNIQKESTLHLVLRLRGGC
ubiquitin-7-amino-4-methylcoumarin, P0CG47, sequence (P0CG47 whole entry, looked up): as above

B1: AMSH (associated molecule with the SH3 domain of STAM) (protein)
chain: MSDHGDVSLPPEDRVRALSQLGSAVEVNEDIPPRRYFRSGVEIIRMASIYSEEGNIEHAFILYNKYITLFIEKLPKHRDYKSAVIPEKKDTVKKLKEIAFPKAEELKAELLKRYTKEYTEYNEEKKKEAEELARNMAIQQELEKEKQRVAQQKQQQLEQEQFHAFEEMIRNQELEKERLKIVQEFGKVDPGLGGPLVPDLEKPSLDVFPTLTVSSIQPSDCHTTVRPAKPPVVDRSLKPGALSNSESIPTIDGLRHVVVPGRLCPQFLQLASANTARGVETCGILCGKLMRNEFTITHVLIPKQSAGSDYCNTENEEELFLIQDQQGLITLGWIHTHPTQTAFLSSVDLHTHCSYQMMLPESVAIVCSPKFQETGFFKLTDHGLEEISSCRQKGFHPHSKDPPLFCSCSHVTVVDRAVTITDLR
In data set [1], B1 gave a Signal to Background, luminescence, DUB 10 nM of 1.4 S/B.

B2: Ataxin3-like (protein)
chain: MDFIFHEKQEGFLCAQHCLNNLLQGEYFSPVELASIAHQLDEEERMRMAEGGVTSEEYLAFLQQPSENMDDTGFFSIQVISNALKFWGLEIIHFNNPEYQKLGIDPINERSFICNYKQHWFTIRKFGKHWFNLNSLLAGPELISDTCLANFLARLQQQAYSVFVVKGDLPDCEADQLLQIISVEEMDTPKLNGKKLVKQKEHRVYKTVLEKVSEESDESGTSDQDEEDFQRALELSRQETNREDEHLRSTIELSMQGSSGNTSQDLPKTSCVTPASEQPKKIKEDYFEKHQQEQKQQQQQSDLPGHSSYLHERPTTSSRAIESDLSDDISEGTVQAAVDTILEIMRKNLKIKGEK
B2: the Signal to Background, fluorescence, DUB 10 nM is 1.6 S/B in data set [2] and 1.1 S/B in data set [3]. Also, the Signal to Background, luminescence, DUB 10 nM was 1.5 S/B in data set [1] and 120 S/B with Ub(1-76)-aminoluciferin.

B3: SENP2 (sentrin-specific protease 2) (protein)
chain: DLLELTEDMEKEISNALGHGPQDEILSSAFKLRITRGDIQTLKNYHWLNDEVINFYMNLLVERNKKQGYPALHVFSTFFYPKLKSGGYQAVKRWTKGVNLFEQEIILVPIHRKVHWSLVVIDLRKKCLKYLDSMGQKGHRICEILLQYLQDESKTKRNSDLNLLEWTHHSMKPHEIPQQLNGSDCGMFTCKYADYISRDKPITFTQHQMPLFRKKMVWEILHQQLL
Take B3: the “luminescence signal (S/B), enzyme 200 pM” value in data set [4] is “SENP1, SENP2, and SENP6 (200 pM) on the other hand gave strong signals with hSUMO2-amino-luciferin”; in data set [1], “Z-Arg-Leu-Arg-Gly-Gly (SEQ ID NO: 1)-amino-luciferin also gave signals with SENP2 and SENP6 (200 pM)”.

B4: USP2core (the common catalytic core domain of the two isoforms of USP2, USP2a and USP2b) (protein)
chain: NSKSAQGLAGLRNLGNTCFMNSILQCLSNTRELRDYCLQRLYMRDLHHGSNAHTALVEEFAKLIQTIWTSSPNDVVSPSEFKTQIQRYAPRFVGYNQQDAQEFLRFLLDGLHNEVNRVTLRPKSNPENLDHLPDDEKGRQMWRKYLEREDSRIGDLFVGQLKSSLTCTDCGYCSTVFDPFWDLSLPIAKRGYPEVTLMDCMRLFTKEDVLDGDEKPTCCRCRGRKRCIKKFSIQRFPKILVLHLKRFSESRIRTSKLTTFVNFPLRDLDLREFASENTNHAVYNLYAVSNHSGTTMGGHYTAYCRSPGTGEWHTFNDSSVTPMSSSQVRTSDAYLLFYELASPPSRM
In the case of B4, the “S/B against the S/B for both Ub-AMC and Ub-Rhodamine110, enzyme 0.5 nM” value in the data set with Ub(1-76)-aminoluciferin was “increased by ~100-fold relative to the S/B for both Ub-AMC and Ub-Rhodamine110”.

B5: UCHL5 (protein)
chain: MTGNAGEWCLMESDPGVFTELIKGFGCRGAQVEEIWSLEPENFEKLKPVHGLIFLFKWQPGEEPAGSVVQDSRLDTIFFAKQVINNACATQAIVSVLLNCTHQDVHLGETLSEFKEFSQSFDAAMKGLALSNSDVIRQVHNSFARQQMFEFDTKTSAKEEDAFHFVSYVPVNGRLYELDGLREGPIDLGACNQDDWISAVRPVIEKRIQKYSEGEIRFNLMAIVSDRKMIYEQKIAELQRQLAEEEPMDTDQGNSMLSAIQSEVAKNQMLIEEEVQKLKRYKIENIRRKHNYLPFIMELLKTLAEHQQLIPLVEKAKEKQNAKKAQETK
Take B5: the Signal to Background, luminescence, DUB 10 nM in data set [1] was 1.4 S/B.

B6: JosD2 (protein)
chain: MSQAPGAQPSPPTVYHERQRLELCAVHALNNVLQQQLFSQEAADEICKRLAPDSRLNPHRSLLGTGNYDVNVIMAALQGLGLAAVWWDRRRPLSQLALPQVLGLILNLPSPVSLGLLSLPLRRRHWVALRQVDGVYYNLDSKLRAPEALGDEDGVRAFLAAALAQGLCEVLLVVTKEVEEKGSWLRTD
With B6, the Signal to Background, fluorescence, DUB 10 nM in data set [2] came out at 8.2 S/B; in data set [3], 2.1 S/B. For the same protein, the values for the Signal to Background, luminescence, DUB 10 nM (in data set [1]; in the data set with Ub(1-76)-aminoluciferin) were 2.1 S/B and 760 S/B, respectively.

B7: UCHL3 (ubiquitin carboxyl-terminal hydrolase isozyme L3) (protein)
chain: MEGQRWLPLEANPEVTNQFLKQLGLHPNWQFVDVYGMDPELLSMVPRPVCAVLLLFPITEKYEVFRTEEEEKIKSQGQDVTSSVYFMKQTISNACGTIGLIHAIANNKDKMHFESGSTLKKFLEESVSMSPEERARYLENYDAIRVTHETSAHEGQTEAPSIDEKVDLHFIALVHVDGHLYELDGRKPFPINHGETSDETLLEDAIEVCKKFMERDPDELRFNAIALSAA
For B7, the “signal to background (S/B) ratio, bioluminescence, 20 uM substrate, 40 nM UCHL3” value in data set [1] is “a signal to background (S/B) ratio of ~1000 was obtained”. Also, in the data set with Ub(1-76)-aminoluciferin, the “S/B against the S/B for Ub-AMC, UCHL3 0.01 nM” value is recorded as ~50-fold greater than the S/B for Ub-AMC; the “S/B against the S/B for Ub-rhodamine110, UCHL3 0.01 nM” value was ~200-fold greater than the S/B for Ub-rhodamine110; the “signal to background (S/B) ratio, bioluminescence, 100 nM substrate, 32 pM UCHL3” value is “the same S/B ratio of 1000 was obtained with 100 nM Ub-amino-luciferin and UCHL3 at a concentration of 32 pM”.

B8: SENP6 (protein)
chain: EEETGENHTIFIGPVEKLIVYPPPPAKGGISVTNEDLHCLNEGEFLNDVIIDFYLKYLVLEKLKKEDADRIHIFSSFFYKRLNQRERRNHETTNLSIQQKRHGRVKTWTRHVDIFEKDFIFVPLNEAAHWFLAVVCFPGLEKPKYEPNPHYHENAVIQKCSTVEDSCISSSASEMESCSQNSSAKPVIKKMLNKKHCIAVIDSNPGQEESDPRYKRNICSVKYSVKKINHTASENEEFNKGESTSQKVADRTKSENGLQNESLSSTHHTDGLSKIRLNYSDESPEAGKMLEDELVDFSEDQDNQDDSSDDGFLADDNCSSEIGQWHLKPTICKQPCILLMDSLRGPSRSNVVKILREYLEVEWEVKKGSKRSFSKDVMKGSNPKVPQQNNFSDCGVYVLQYVESFFENPILSFELPMNLANWFPPPRMRTKREEIRNIILKLQEDQSKEKRKHKDTYSTEAPLGEGTEQYVNSISD
For the protein B8, the “luminescence signal (S/B), enzyme 200 pM” value was “SENP1, SENP2, and SENP6 (200 pM) on the other hand gave strong signals with hSUMO2-amino-luciferin” in data set [4]; “Z-Arg-Leu-Arg-Gly-Gly (SEQ ID NO: 1)-amino-luciferin also gave signals with SENP2 and SENP6 (200 pM)” in data set [1].

B9: USP34 (protein)
chain: VGLTNLGATCYLASTIQQLYMIPEARQAVFTAKYSEDMKHKTTLLELQKMFTYLMESECKAYNPRPFCKTYTMDKQPLNTGEQKDMTEFFTDLITKIEEMSPELKNTVKSLFGGVITNNVVSLDCEHVSQTAEEFYTVRCQVADMKNIYESLDEVTIKDTLEGDNMYTCSHCGKKVRAEKRACFKKLPRILSFNTMRYTFNMVTMMKEKVNTHFSFPLRLDMTPYTEDFLMGKSERKEGFKEVSDHSKDSESYEYDLIGVTVHTGTADGGHYYSFIRDIVNPHAYKNNKWYLFNDAEVKPFDSAQLASECFGGEMTTKTYDSVTDKFMDFSFEKTHSAYMLFYKRM
On to B9, for which the “luminescence signal (S/B), enzyme 200 pM” value in data set [4] was “hSUMO2-amino-luciferin yielded virtually no signal with the DUBs USP34, USP7, and USP8 at concentrations equal to 200 pM”.

B10: SENP1 (protein)
chain: EFPEITEEMEKEIKNVFRNGNQDEVLSEAFRLTITRKDIQTLNHLNWLNDEIINFYMNMLMERSKEKGLPSVHAFNTFFFTKLKTAGYQAVKRWTKKVDVFSVDILLVPIHLGVHWCLAVVDFRKKNITYYDSMGGINNEACRILLQYLKQESIDKKRKEFDTNGWQLFSKKSQEIPQQMNGSDCGMFACKYADCITKDRPINFTQQHMPYFRKRMVWEILHRKLL
For the protein B10, the “luminescence signal (S/B), enzyme 200 pM” value in data set [4] was “SENP1, SENP2, and SENP6 (200 pM) on the other hand gave strong signals with hSUMO2-amino-luciferin”.

B11: USP8 (protein)
chain: MPAVASVPKELYLSSSLKDLNKKTEVKPEKISTKSYVHSALKIFKTAEECRLDRDEERAYVLYMKYVTVYNLIKKRPDFKQQQDYFHSILGPGNIKKAVEEAERLSESLKLRYEEAEVRKKLEEKDRQEEAQRLQQKRQETGREDGGTLAKGSLENVLDSKDKTQKSNGEKNEKCETKEKGAITAKELYTMMTDKNISLIIMDARRMQDYQDSCILHSLSVPEEAISPGVTASWIEAHLPDDSKDTWKKRGNVEYVVLLDWFSSAKDLQIGTTLRSLKDALFKWESKTVLRNEPLVLEGGYENWLLCYPQYTTNAKVTPPPRRQNEEVSISLDFTYPSLEESIPSKPAAQTPPASIEVDENIELISGQNERMGPLNISTPVEPVAASKSDVSPIIQPVPSIKNVPQIDRTKKPAVKLPEEHRIKSESTNHEQQSPQSGKVIPDRSTKPVVFSPTLMLTDEEKARIHAETALLMEKNKQEKELRERQQEEQKEKLRKEEQEQKAKKKQEAEENEITEKQQKAKEEMEKKESEQAKKEDKETSAKRGKEITGVKRQSKSEHETSDAKKSVEDRGKRCPTPEIQKKSTGDVPHTSVTGDSGSGKPFKIKGQPESGILRTGTFREDTDDTERNKAQREPLTRARSEEMGRIVPGLPSGWAKFLDPITGTFRYYHSPTNTVHMYPPEMAPSSAPPSTPPTHKAKPQIPAERDREPSKLKRSYSSPDITQAIQEEEKRKPTVTPTVNRENKPTCYPKAEISRLSASQIRNLNPVFGGSGPALTGLRNLGNTCYMNSILQCLCNAPHLADYFNRNCYQDDINRSNLLGHKGEVAEEFGIIMKALWTGQYRYISPKDFKITIGKINDQFAGYSQQDSQELLLFLMDGLHEDLNKADNRKRYKEENNDHLDDFKAAEHAWQKHKQLNESIIVALFQGQFKSTVQCLTCHKKSRTFEAFMYLSLPLASTSKCTLQDCLRLFSKEEKLTDNNRFYCSHCRARRDSLKKIEIWKLPPVLLVHLKRFSYDGRWKQKLQTSVDFPLENLDLSQYVIGPKNNLKKYNLFSVSNHYGGLDGGHYTAYCKNAARQRWFKFDDHEVSDISVSSVKSSAAYILFYTSLGPRVTDVAT
As for B11, the “luminescence signal (S/B), enzyme 200 pM” value in data set [4] is “hSUMO2-amino-luciferin yielded virtually no signal with the DUBs USP34, USP7, and USP8 at concentrations equal to 200 pM”. The “S/B against the S/B for both Ub-AMC and Ub-Rhodamine110, enzyme 0.5 nM” value with Ub(1-76)-aminoluciferin is “increased by ~100-fold relative to the S/B for both Ub-AMC and Ub-Rhodamine110”.
